In assay [1] the target is T1, human CLDN6 protein (human, UniProt P56747 1-220).
T1 sequence (looked up): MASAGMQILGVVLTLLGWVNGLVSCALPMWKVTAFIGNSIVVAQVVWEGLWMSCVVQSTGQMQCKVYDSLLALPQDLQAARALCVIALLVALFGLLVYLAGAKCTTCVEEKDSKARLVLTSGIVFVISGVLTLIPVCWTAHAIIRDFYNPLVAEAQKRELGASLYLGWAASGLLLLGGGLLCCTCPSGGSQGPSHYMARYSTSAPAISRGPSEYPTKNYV
In words: flow cytometry on cells overexpressing human CLDN6; 10 µg/mL control antibody, Alexa 647 anti-mouse secondary; single point. A general note: Flow cytometry measures light scatter and fluorescence of single cells or particles in a stream.

The target of assay [2] is T2, human CLDN9 protein (human, UniProt O95484 1-217).
T2 sequence (looked up): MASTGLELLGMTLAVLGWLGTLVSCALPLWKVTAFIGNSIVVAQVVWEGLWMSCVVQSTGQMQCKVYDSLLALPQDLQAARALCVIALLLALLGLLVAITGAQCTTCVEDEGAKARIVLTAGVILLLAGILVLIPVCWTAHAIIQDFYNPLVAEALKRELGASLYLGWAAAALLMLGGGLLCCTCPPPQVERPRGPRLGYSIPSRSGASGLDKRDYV
The assay is described as follows: flow cytometry on cells overexpressing human CLDN9; 10 µg/mL control antibody, Alexa 647 anti-mouse secondary; single point.

Assay [3] concerns the target T3, human CLDN4 protein (human, UniProt O14493 1-209).
T3 sequence (looked up): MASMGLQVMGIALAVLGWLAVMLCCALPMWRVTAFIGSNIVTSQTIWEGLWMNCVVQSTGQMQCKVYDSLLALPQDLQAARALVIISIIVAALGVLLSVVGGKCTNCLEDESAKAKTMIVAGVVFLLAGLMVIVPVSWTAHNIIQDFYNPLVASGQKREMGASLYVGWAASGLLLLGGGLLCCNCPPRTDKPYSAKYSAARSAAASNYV
The assay is described as follows: flow cytometry on cells overexpressing human CLDN4; 10 µg/mL control antibody, Alexa 647 anti-mouse secondary; single point.

The target of assay [4] is T1, human CLDN6 protein. The assay is described as follows: cell-based or functional assay.
For assay [5], the target named is T2, human CLDN9 protein. In words: cell-based or functional assay.
In assay [6] the target is T2, human CLDN9 protein. The assay is described as follows: flow cytometry on cells overexpressing human CLDN9; 10 µg/mL purified antibody, Alexa 647 anti-mouse secondary; single point.
Assay [7] has as its target T3, human CLDN4 protein. The assay is described as follows: flow cytometry on cells overexpressing human CLDN4; Alexa 647 anti-mouse secondary; single point.
For assay [8], the target named is T3, human CLDN4 protein. In words: flow cytometry on cells overexpressing human CLDN4; 10 µg/mL purified antibody, Alexa 647 anti-mouse secondary; single point.
Assay [9] concerns the target T1, human CLDN6 protein. In words: flow cytometry on cells overexpressing human CLDN6; 10 µg/mL purified antibody, Alexa 647 anti-mouse secondary; single point.
Assay [10] concerns the target T3, human CLDN4 protein. In words: cell-based or functional assay.
For assay [11], the target named is T2, human CLDN9 protein. The assay is described as follows: flow cytometry on cells overexpressing human CLDN9; Alexa 647 anti-mouse secondary; single point.
Assay [12] concerns the target T1, human CLDN6 protein. In words: cell-based or functional assay. This is another data set of the same source.

Substitutions are numbered along the chain they refer to.

Consider mIgG2b control (antibody), for which the MFI amounted to 84 in the assay with human CLDN6 protein [1], 81 in the assay with human CLDN9 protein [2] and 73 with human CLDN4 protein [3].

B1: SC27.204 mouse monoclonal anti-CLDN antibody (antibody, V domains shown)
VH: EVKVLESGGGLVQPGGSLKLSCAASGFDFSRYWMSWVRQAPGKGLEWIGEINPDSSTINYTPSLKAKFIISRDNAKNTLYLQMSKVRSEDTALYYCTGPAYWGQGTLVTVSA
VL: DIVMTQSQKFMSTSVGDRVSVACKAGQNVGTSVAWYQQKPGHSPKSLIYSASYRYSGVPNRFTGSGSGTDFTLTISNVQSEDLADYFCQQYITYPYTFGGGTKLEII
With B1, in the assay with human CLDN6 protein [4], the “apparent IC50 of killing of HEK-293T cells overexpressing hCLDN6; antibody titrated 0.15 to 1000 nM with anti-mouse IgG Fab-saporin, CellTiter-Glo” value amounted to 25.2 nM. Besides, in the assay with human CLDN9 protein [5], the “apparent IC50 of killing of HEK-293T cells overexpressing hCLDN9; antibody titrated 0.15 to 1000 nM with anti-mouse IgG Fab-saporin, CellTiter-Glo” value came to 16.9 nM. For the same molecule, the MFI stood at 23000 with human CLDN9 protein [6], 79 with human CLDN4 protein [8] and 106000 with human CLDN6 protein [9]. Also, the binding result with human CLDN4 protein [7] is “no binding (tested: 10 µg/mL)”.

B2: SC27.201 mouse monoclonal anti-CLDN antibody (antibody, V domains shown)
VL: DIQMTQSSSSFSVSLGDRVTITCKASEDIYNRLAWYQQKPGNAPRLLISGATSLEAGVPSGFSGSGSGKDYTLSITSLQTEDVATYYCQQYWSTPPTFGGGTKLELK
V domain: EVQLQQSGPELVKPGASVKISCKTSGYTFTENIRHWVKQSRGKSLEWIGTINPNNGETRYNQKFKGKATLTVDKSSSTAYMELRSLTSEDSAVYYCTRGITKSPYGMDYWGQGTSITVSS
Take B2: the “apparent IC50 of killing of HEK-293T cells overexpressing hCLDN4; antibody titrated 0.15 to 1000 nM with anti-mouse IgG Fab-saporin, CellTiter-Glo” value with human CLDN4 protein [10] is 69.7 nM. Moreover, the “apparent IC50 of killing of HEK-293T cells overexpressing hCLDN6; antibody titrated 0.15 to 1000 nM with anti-mouse IgG Fab-saporin, CellTiter-Glo” value in the assay with human CLDN6 protein [4] stood at 48.2 nM. Besides, in the assay with human CLDN9 protein [5], the “apparent IC50 of killing of HEK-293T cells overexpressing hCLDN9; antibody titrated 0.15 to 1000 nM with anti-mouse IgG Fab-saporin, CellTiter-Glo” value is 155 nM. Also, the MFI in the assay with human CLDN9 protein [6] turned out to be 7100; with human CLDN4 protein [8] it was 23100; with human CLDN6 protein [9], 29900.

B3: SC27.106 (antibody, V domains shown)
VH: EVQLQQSGPELVKPGASVKISCKTSGYTFTEYTMHWVKQSHGKSLEWIGGINPNNGGTNYNQKFKGKATLTVDKSSSTAYMELRSLTSEDSAVYYCARRLITYYAMDYWGQGTSVTVSS
VL: B2 VL with S49C, A56T, G61R, P96L, G100A
notes: also called SC27.106 mouse monoclonal anti-CLDN antibody
As for B3, the MFI with human CLDN9 protein [6] stood at 595; in the assay with human CLDN4 protein [8], 1990; with human CLDN6 protein [9] it was 55800.

B4: SC27.104 mouse monoclonal anti-CLDN antibody (antibody, V domains shown)
VH: EVQLQQSGPELVKPGASVKISCKTSGYTFTEYTVHWVKQSHGKSLEWIGGVYPKNGDTTYNQKFRGKATLTVDKSSNTAYMELRSLTSEDSAVYYCTGKDGYDGFAYWGQGTLVTVSA
VL: B2 VL with A56T, G61R, T94N, L106I
On to B4, for which, in the assay with human CLDN4 protein [10], the “apparent IC50 of killing of HEK-293T cells overexpressing hCLDN4; antibody titrated 0.15 to 1000 nM with anti-mouse IgG Fab-saporin, CellTiter-Glo” value was 969 nM. In the assay with human CLDN6 protein [4], the “apparent IC50 of killing of HEK-293T cells overexpressing hCLDN6; antibody titrated 0.15 to 1000 nM with anti-mouse IgG Fab-saporin, CellTiter-Glo” value was 284 nM. Further, the MFI worked out at 7230 with human CLDN9 protein [6], 22600 with human CLDN4 protein [8] and 39200 with human CLDN6 protein [9].

B5: SC27.203 (antibody, V domains shown)
VH: B2 V domain with R34I, R41H, T50G, N54I, E57G, R59S, T97A, K102T, G106A, I116V
VL: B2 VL with K39N, A43T, I48M, A56T, G61R, T80I, A84S, K103R, L106I
notes: also called SC27.203 mouse monoclonal anti-CLDN antibody
As for B5, the MFI with human CLDN9 protein [6] turned out to be 587; in the assay with human CLDN4 protein [8] it was 2980; in the assay with human CLDN6 protein [9] it was 47400.

B6: SC27.105 mouse monoclonal anti-CLDN antibody (antibody, V domains shown)
VH: EVQLQQSGPELVKPGASVKISCKASGYSFTGYYMNWVKQSPEKSLEWIGEINPSTGSTTYNQKFKAKATLTVDKSSSTAYMQLKSLTSEDSAVYYCARRDYYYGSGFYAMDYWGQGTSVTVSS
VL: DVQMTQSPSSLSASLGERVSLTCQASQSVSNNLNWYQQTPGKAPRLLIYGASKLEDGVSSRFSGTGYGTDFTFTISSLEEEDVATYFCLQHRYLWTFGGGTKLEIK
Take B6: the binding result in the assay with human CLDN9 protein [11] and with human CLDN4 protein [7] was “no binding (tested: 10 µg/mL)” each time. Further, in the assay with human CLDN6 protein [4], the “apparent IC50 of killing of HEK-293T cells overexpressing hCLDN6; antibody titrated 0.15 to 1000 nM with anti-mouse IgG Fab-saporin, CellTiter-Glo” value was determined as 235 nM. Moreover, the MFI worked out at 80 in the assay with human CLDN9 protein [6], 69 with human CLDN4 protein [8] and 83000 in the assay with human CLDN6 protein [9].

B7: SC27.108 mouse monoclonal anti-CLDN antibody (antibody, V domains shown)
VH: QVQMQQSGAELVRPGTSVKVSCKASGYAFTNYLIEWVKQRPGQGLEWIGLINPGSGGTNYNEKFKGKATLTADKSSTTAYMQLSSLTSDDSAVYFCARRSPLGSWIYYAYDGVAYWGQGTLVTVSA
VL: EIVLTQSPALMAASPGEKVTITCSVSSSISSSNLHWYQQKSGTSPKLWIYGTSNLASGVPVRFSGSGSGTSYSLTISNMEAEDAATYYCQQWSSYPHTFGGGTKLEIK
notes: also called SC27.109 (identical)
Take B7: the “apparent IC50 of saporin-mediated cell killing” value with human CLDN6 protein [12] was 100 nM. The binding result with human CLDN9 protein [11] and with human CLDN4 protein [7] was “no binding (tested: 10 µg/mL)” in each case. Besides, the “apparent IC50 of killing of HEK-293T cells overexpressing hCLDN6; antibody titrated 0.15 to 1000 nM with anti-mouse IgG Fab-saporin, CellTiter-Glo” value with human CLDN6 protein [4] amounted to 102 nM. In addition, the MFI turned out to be 86 with human CLDN9 protein [6], 88 in the assay with human CLDN4 protein [8] and 99700 with human CLDN6 protein [9].

The values above are taken from patent US20190077876A1 (AbbVie / Abbott, published 2019).
